Source: patent US10206896B2, “Method of treating delayed healing of a wound associated with diabetes” (KUWAIT UNIVERSITY, priority 2014, dated 2019)

Assays:
[1] = system: control fibroblasts (CFs); assay: BrdU incorporation into DNA (cell proliferation) in control fibroblasts; type: cell-based, Wistar rat; conditions: 24-hr serum starved CFs, vs starved cells; dose providing the maximum response (IGF 50 ng, PDGF 1 nM, EGF 100 ng)
Method: (§1) Cell culture and HP treatment. […] Assessment of key fibroblast functions essential for wound healing. To assess cell proliferation, fibroblasts were seeded into a 96-well plate at a density of 1×10^4 per well and were allowed to adhere overnight in DMEM medium supplemented with 10% FCS. After arrest by incubation in serum-free medium for 24 hours, the cells were exposed to growth factors, and the incorporation of bromodeoxyuridine (BrdU) into DNA was determined using the manufacturer's protocol (Roche Diagnostics). Similarly, for the in vitro wound (migration) experiments, cultured fibroblasts were grown in six-well plates until they reached confluence. The medium was removed, the cells were washed with PBS 3× before culturing was continued in serum-free DMEM containing 0.5% BSA for an additional 24 hours. […] The rate of wound healing was quantified as described in the literature […] Caveolin-1 protein expression and PDGF-induced phosphorylation of Akt (20 min) and ERK (10 min) in 24-hr serum starved fibroblasts were determined using a Western-blotting-based technique. A proliferation index encompassing BrdU incorporation into DNA and cell cycle progression was evaluated in response to various growth factors (e.g., IGF, 50 ng; PDGF, 1 nM; EGF, 100 ng) in 24-hr serum starved fibroblast. […]

[2] = system: control fibroblasts (CFs); assay: In vitro scratch wound (cell migration) in control fibroblasts; type: cell-based, Wistar rat; conditions: 24 hrs post-injury
Method: as §1

B1: EGF: mitotic growth factor (protein, UniProt P01133 23-1207, looked up)
Pro-epidermal growth factor: PQHWSCPEGTLAGNGNSTCVGPAPFLIFSHGNSIFRIDTEGTNYEQLVVDAGVSVIMDFHYNEKRIYWVDLERQLLQRVFLNGSRQERVCNIEKNVSGMAINWINEEVIWSNQQEGIITVTDMKGNNSHILLSALKYPANVAVDPVERFIFWSSEVAGSLYRADLDGVGVKALLETSEKITAVSLDVLDKRLFWIQYNREGSNSLICSCDYDGGSVHISKHPTQHNLFAMSLFGDRIFYSTWKMKTIWIANKHTGKDMVRINLHSSFVPLGELKVVHPLAQPKAEDDTWEPEQKLCKLRKGNCSSTVCGQDLQSHLCMCAEGYALSRDRKYCEDVNECAFWNHGCTLGCKNTPGSYYCTCPVGFVLLPDGKRCHQLVSCPRNVSECSHDCVLTSEGPLCFCPEGSVLERDGKTCSGCSSPDNGGCSQLCVPLSPVSWECDCFPGYDLQLDEKSCAASGPQPFLLFANSQDIRHMHFDGTDYGTLLSQQMGMVYALDHDPVENKIYFAHTALKWIERANMDGSQRERLIEEGVDVPEGLAVDWIGRRFYWTDRGKSLIGRSDLNGKRSKIITKENISQPRGIAVHPMAKRLFWTDTGINPRIESSSLQGLGRLVIASSDLIWPSGITIDFLTDKLYWCDAKQSVIEMANLDGSKRRRLTQNDVGHPFAVAVFEDYVWFSDWAMPSVMRVNKRTGKDRVRLQGSMLKPSSLVVVHPLAKPGADPCLYQNGGCEHICKKRLGTAWCSCREGFMKASDGKTCLALDGHQLLAGGEVDLKNQVTPLDILSKTRVSEDNITESQHMLVAEIMVSDQDDCAPVGCSMYARCISEGEDATCQCLKGFAGDGKLCSDIDECEMGVPVCPPASSKCINTEGGYVCRCSEGYQGDGIHCLDIDECQLGEHSCGENASCTNTEGGYTCMCAGRLSEPGLICPDSTPPPHLREDDHHYSVRNSDSECPLSHDGYCLHDGVCMYIEALDKYACNCVVGYIGERCQYRDLKWWELRHAGHGQQQKVIVVAVCVVVLVMLLLLSLWGAHYYRTQKLLSKNPKNPYEESSRDVRSRRPADTEDGMSSCPQPWFVVIKEHQDLKNGGQPVAGEDGQAADGSMQPTSWRQEPQLCGMGTEQGCWIPVSSDKGSCPQVMERSFHMPSYGTQTLEGGVEKPHSLLSANPLWQQRALDPPHQMELTQ
modifications: Pro-epidermal growth factor
- increase of proliferation rate (BrdU incorporation) [1]: ~7.1 fold
- number of cells that migrated into the cell-free wound zone [2]: markedly increased
